Reference: patent US20220289850 (published 2022)

T1: human integrin avb8 (human)
T1 chain 1: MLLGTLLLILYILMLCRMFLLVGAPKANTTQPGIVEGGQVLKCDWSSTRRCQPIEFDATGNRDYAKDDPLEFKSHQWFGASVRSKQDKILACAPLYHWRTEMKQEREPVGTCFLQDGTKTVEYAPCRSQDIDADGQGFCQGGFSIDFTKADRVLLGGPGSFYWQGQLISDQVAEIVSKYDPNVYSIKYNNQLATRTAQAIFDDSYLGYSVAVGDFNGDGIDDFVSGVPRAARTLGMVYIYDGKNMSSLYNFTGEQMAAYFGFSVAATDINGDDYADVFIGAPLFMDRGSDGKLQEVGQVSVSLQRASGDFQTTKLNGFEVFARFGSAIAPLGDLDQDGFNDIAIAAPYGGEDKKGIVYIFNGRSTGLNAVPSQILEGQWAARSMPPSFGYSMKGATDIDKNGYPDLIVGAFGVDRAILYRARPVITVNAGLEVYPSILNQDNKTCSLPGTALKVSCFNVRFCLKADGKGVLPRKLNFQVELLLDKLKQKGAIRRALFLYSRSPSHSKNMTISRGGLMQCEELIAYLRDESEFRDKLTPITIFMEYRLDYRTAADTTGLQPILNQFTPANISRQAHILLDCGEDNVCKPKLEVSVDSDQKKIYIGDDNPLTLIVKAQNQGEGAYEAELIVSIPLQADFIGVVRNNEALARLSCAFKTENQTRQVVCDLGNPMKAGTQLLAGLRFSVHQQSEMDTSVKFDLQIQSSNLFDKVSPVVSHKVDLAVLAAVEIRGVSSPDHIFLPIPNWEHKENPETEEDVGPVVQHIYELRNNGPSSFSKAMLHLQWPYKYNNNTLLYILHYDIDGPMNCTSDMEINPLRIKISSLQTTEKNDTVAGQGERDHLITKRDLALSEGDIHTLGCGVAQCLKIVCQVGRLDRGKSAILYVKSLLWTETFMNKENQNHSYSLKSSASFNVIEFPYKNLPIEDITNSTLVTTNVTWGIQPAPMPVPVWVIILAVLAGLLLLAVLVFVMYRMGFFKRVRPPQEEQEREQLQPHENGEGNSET
T1 chain 2: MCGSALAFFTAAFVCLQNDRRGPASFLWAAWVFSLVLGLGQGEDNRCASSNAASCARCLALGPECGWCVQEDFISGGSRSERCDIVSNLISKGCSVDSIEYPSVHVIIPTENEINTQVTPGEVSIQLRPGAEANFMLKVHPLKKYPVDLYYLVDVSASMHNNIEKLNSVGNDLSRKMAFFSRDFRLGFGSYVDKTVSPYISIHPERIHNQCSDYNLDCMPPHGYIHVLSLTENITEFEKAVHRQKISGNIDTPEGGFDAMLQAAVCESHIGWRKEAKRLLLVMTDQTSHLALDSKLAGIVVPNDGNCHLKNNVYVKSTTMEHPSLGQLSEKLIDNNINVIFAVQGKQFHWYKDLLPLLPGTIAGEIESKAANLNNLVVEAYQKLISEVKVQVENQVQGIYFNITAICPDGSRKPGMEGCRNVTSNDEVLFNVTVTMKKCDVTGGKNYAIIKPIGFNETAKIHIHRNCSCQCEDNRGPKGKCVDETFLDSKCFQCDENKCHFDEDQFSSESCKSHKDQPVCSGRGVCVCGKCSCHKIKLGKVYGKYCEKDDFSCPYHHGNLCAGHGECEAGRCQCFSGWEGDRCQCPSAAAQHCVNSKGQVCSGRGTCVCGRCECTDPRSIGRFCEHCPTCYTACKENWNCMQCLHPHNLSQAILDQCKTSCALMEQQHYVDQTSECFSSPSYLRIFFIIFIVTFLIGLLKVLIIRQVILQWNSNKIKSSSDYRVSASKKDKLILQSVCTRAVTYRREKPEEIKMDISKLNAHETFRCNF

T2: human integrin avb3 (human, UniProt P06756)
T2 chain 1: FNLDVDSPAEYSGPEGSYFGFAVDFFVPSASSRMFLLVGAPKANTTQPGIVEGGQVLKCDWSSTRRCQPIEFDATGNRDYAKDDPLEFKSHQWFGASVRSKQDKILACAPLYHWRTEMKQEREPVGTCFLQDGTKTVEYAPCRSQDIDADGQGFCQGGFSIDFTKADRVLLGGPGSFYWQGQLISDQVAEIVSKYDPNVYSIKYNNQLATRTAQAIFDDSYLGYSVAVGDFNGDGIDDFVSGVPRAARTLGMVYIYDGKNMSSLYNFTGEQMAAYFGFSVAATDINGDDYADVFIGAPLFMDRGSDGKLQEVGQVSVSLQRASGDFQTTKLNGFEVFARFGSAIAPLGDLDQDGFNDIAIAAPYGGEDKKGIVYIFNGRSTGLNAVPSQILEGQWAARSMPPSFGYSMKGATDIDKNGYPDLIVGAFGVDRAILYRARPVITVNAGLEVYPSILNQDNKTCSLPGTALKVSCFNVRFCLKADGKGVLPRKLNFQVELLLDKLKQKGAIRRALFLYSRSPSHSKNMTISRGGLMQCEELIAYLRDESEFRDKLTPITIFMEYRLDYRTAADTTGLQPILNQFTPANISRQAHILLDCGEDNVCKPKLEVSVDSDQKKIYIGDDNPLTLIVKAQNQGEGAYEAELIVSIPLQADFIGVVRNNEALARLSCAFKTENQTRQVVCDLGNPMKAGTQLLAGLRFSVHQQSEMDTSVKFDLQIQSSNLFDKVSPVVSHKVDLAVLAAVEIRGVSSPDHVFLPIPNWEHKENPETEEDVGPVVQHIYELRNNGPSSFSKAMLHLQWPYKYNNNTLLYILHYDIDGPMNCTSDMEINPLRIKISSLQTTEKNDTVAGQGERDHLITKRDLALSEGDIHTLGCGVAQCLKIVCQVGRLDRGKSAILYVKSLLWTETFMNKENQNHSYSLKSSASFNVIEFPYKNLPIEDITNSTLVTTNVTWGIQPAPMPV
T2 chain 2: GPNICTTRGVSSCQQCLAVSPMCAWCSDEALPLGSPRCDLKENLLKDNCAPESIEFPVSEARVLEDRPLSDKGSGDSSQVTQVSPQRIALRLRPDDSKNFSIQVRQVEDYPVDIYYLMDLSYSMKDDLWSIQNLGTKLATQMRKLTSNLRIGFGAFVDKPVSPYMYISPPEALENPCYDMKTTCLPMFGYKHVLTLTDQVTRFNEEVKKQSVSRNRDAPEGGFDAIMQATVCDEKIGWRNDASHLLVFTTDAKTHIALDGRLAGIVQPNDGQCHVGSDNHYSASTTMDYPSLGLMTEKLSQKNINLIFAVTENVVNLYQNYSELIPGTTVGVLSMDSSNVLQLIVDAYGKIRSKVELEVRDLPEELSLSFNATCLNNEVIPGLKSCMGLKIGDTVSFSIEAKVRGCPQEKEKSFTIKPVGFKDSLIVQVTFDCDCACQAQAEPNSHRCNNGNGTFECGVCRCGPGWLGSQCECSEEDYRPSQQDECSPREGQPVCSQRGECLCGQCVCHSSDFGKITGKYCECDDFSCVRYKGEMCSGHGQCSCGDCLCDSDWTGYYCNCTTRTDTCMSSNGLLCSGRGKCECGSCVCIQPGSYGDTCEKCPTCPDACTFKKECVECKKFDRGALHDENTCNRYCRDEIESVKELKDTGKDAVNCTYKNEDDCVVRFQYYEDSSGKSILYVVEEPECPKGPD

T3: human integrin avb6 (human, UniProt P06756)
T3 chain 1: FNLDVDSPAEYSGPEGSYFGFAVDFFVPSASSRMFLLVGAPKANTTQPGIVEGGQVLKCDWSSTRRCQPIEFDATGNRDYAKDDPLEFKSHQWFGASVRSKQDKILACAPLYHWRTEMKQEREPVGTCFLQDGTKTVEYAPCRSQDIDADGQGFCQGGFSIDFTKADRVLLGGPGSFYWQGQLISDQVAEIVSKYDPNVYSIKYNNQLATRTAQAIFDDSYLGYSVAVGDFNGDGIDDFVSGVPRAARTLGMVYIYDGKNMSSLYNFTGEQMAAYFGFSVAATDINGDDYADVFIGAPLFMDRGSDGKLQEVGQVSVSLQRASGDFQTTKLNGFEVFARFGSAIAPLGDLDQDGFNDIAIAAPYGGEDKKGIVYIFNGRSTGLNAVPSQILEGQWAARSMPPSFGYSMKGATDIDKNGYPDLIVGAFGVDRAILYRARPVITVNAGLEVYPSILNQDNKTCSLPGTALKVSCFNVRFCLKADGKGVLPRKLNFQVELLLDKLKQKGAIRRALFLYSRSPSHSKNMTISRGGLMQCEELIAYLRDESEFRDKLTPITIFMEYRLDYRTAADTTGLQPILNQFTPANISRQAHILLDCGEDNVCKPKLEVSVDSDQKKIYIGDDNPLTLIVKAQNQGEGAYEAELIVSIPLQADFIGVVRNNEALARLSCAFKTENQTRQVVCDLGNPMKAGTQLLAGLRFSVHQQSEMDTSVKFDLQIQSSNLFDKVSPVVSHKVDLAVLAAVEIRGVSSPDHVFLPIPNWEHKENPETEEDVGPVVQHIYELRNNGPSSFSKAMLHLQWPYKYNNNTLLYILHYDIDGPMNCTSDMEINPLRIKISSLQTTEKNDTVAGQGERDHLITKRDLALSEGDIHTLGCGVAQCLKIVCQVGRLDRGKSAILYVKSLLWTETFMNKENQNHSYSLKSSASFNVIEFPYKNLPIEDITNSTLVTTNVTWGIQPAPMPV
T3 chain 2: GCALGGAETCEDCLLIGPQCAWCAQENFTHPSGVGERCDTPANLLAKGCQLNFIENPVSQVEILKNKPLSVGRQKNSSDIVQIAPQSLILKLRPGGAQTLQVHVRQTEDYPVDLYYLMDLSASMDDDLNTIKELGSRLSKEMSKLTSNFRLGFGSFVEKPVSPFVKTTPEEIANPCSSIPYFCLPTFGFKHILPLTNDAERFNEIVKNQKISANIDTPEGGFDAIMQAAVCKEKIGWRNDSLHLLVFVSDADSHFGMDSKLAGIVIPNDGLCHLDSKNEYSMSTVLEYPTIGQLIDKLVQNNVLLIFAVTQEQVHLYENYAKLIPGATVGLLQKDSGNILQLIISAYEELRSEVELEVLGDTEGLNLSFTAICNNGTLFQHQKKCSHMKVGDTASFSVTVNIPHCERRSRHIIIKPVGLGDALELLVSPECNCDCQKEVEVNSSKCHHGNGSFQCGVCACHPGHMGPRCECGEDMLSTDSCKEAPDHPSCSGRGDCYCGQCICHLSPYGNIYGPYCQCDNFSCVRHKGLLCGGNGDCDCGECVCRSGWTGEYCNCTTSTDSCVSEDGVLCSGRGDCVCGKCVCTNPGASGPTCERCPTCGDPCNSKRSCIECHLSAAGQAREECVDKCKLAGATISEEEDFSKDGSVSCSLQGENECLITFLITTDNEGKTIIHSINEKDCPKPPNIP


What was measured:
human integrin avb8 = target: T1, human integrin avb8; assay: SPR
human integrin avb3 = target: T2, human integrin avb3; assay: SPR
human integrin avb6 [1] = target: T3, human integrin avb6; assay: SPR
human integrin avb6 [2] = target: T3, human integrin avb6; assay: ELISA

Kd (human integrin avb8) | binding result (human integrin avb3) | Binder | further results
0.37 nM | – | ADWA11 VH03/VK02 Fab (antibody, V domains shown) VH: EVQLVESGGGLVQPGGSLRLSCAASGFNIKDYYMNWVRQAPGKGLEWVGWIDPDNGNTIYDPKFQGRFTISADNAKNSAYLQMNSLRAEDTAVYYCARRLLMDYWGQGTLVTVSS VL: DIQMTQSPSSLSASVGDRVTITCRSTKSLLHFNGNTYLFWFQQKPGKAPKRLIYYMSNLASGVPSRFSGSGSGTDFTLTISSLQPEDFATYYCMQSLEYPFTFGQGTKVEIK | –
6.86 nM | – | ADWA11 VH01/VK01 Fab (antibody, V domains shown) VH: EVQLVESGGGLVQPGGSLRLSCAASGFNIKDYYMNWVRQAPGKGLEWVAWIDPDNGNTIYDPKFQGRFTISRDNAKNSLYLQMNSLRAEDTAVYYCARRLLMDYWGQGTLVTVSS VL: DIQMTQSPSSLSASVGDRVTITCRSTKSLLHFNGNTYLFWYQQKPGKAPKRLIYYMSNLASGVPSRFSGSGSGTDFTLTISSLQPEDFATYYCMQSLEYPFTFGQGTKVEIK | –
< 0.1 nM | – | ADWA11 VH03/VK01 Fab (antibody, V domains shown) VH: EVQLVESGGGLVQPGGSLRLSCAASGFNIKDYYMNWVRQAPGKGLEWVGWIDPDNGNTIYDPKFQGRFTISADNAKNSAYLQMNSLRAEDTAVYYCARRLLMDYWGQGTLVTVSS VL: DIQMTQSPSSLSASVGDRVTITCRSTKSLLHFNGNTYLFWYQQKPGKAPKRLIYYMSNLASGVPSRFSGSGSGTDFTLTISSLQPEDFATYYCMQSLEYPFTFGQGTKVEIK | –
1.89 nM | – | ADWA11 VH02/VK01 Fab (antibody, V domains shown) VH: EVQLVESGGGLVQPGGSLRLSCAASGFNIKDYYMNWVRQAPGKGLEWVAWIDPDNGNTIYDPKFQGRFTISADNAKNSLYLQMNSLRAEDTAVYYCARRLLMDYWGQGTLVTVSS VL: DIQMTQSPSSLSASVGDRVTITCRSTKSLLHFNGNTYLFWYQQKPGKAPKRLIYYMSNLASGVPSRFSGSGSGTDFTLTISSLQPEDFATYYCMQSLEYPFTFGQGTKVEIK | –
– | no binding | ADWA11 VH05-2/VK01 antibody (antibody, V domains shown) VH: EVQLVESGGGLVQPGGSLRLSCAASGFNIKDYYMNWVRQAPGKGLEWVGWIDPDNGNTIYDPKFQGRFTISADTSKNSAYLQMNSLRAEDTAVYYCARRLLMDYWGQGTLVTVSS VL: DIQMTQSPSSLSASVGDRVTITCRSTKSLLHFNGNTYLFWYQQKPGKAPKRLIYYMSNLASGVPSRFSGSGSGTDFTLTISSLQPEDFATYYCMQSLEYPFTFGQGTKVEIK | binding result (human integrin avb6 [1]): no binding
– | no binding | Mouse hybridoma ADWA-11 IgG (antibody, V domains shown) VH: EVQLQQSGAELVRPGAFVKLSCKASGFNIKDYYMNWVLQRPEQGLEWIGWIDPDNGNTIYDPKFQGKASITADTSSNTAYLQLSSLTSEDTAVYYCARRLLMDYWGQGTSVTVSS VL: DIVMTQAAPSVPVTPGESVSISCRSTKSLLHFNGNTYLFWFLQRPGQSPQRLIYYMSNLASGVPDRFSGRGSGTDFTLRISRVEAEDVGVYYCMQSLEYPFTFGTGTKLEIK | binding result (human integrin avb6 [2]): no binding
